Target: cell adhesion mediating proteins (CAMP), e.g. integrins, on the cells of the pig skin
Assay: cell-based or functional assay

Average σmax (N), pulling test on pig skin stripes, 35 mg/ml, 30 min incubation: 5.29 N
average maximal adhesion strength compared with C16 (no RGD), pulling test on pig skin: 80%
B1: C16spRGD (eADF4 (C16) genetically fused at the C-terminus to the tag spRGD, …) (protein)
chain: MASMTGGQQMGRGSMGSSAAAAAAAASGPGGYGPENQGPSGPGGYGPGGPGSSAAAAAAAASGPGGYGPENQGPSGPGGYGPGGPGSSAAAAAAAASGPGGYGPENQGPSGPGGYGPGGPGSSAAAAAAAASGPGGYGPENQGPSGPGGYGPGGPGSSAAAAAAAASGPGGYGPENQGPSGPGGYGPGGPGSSAAAAAAAASGPGGYGPENQGPSGPGGYGPGGPGSSAAAAAAAASGPGGYGPENQGPSGPGGYGPGGPGSSAAAAAAAASGPGGYGPENQGPSGPGGYGPGGPGSSAAAAAAAASGPGGYGPENQGPSGPGGYGPGGPGSSAAAAAAAASGPGGYGPENQGPSGPGGYGPGGPGSSAAAAAAAASGPGGYGPENQGPSGPGGYGPGGPGSSAAAAAAAASGPGGYGPENQGPSGPGGYGPGGPGSSAAAAAAAASGPGGYGPENQGPSGPGGYGPGGPGSSAAAAAAAASGPGGYGPENQGPSGPGGYGPGGPGSSAAAAAAAASGPGGYGPENQGPSGPGGYGPGGPGSSAAAAAAAASGPGGYGPENQGPSGPGGYGPGGPGGGSGGRGDSPG

Reference: patent publication US20220257825A1
